Molecular target: T1, α-catenin monomer (recombinant full-length mouse α-catenin) (mouse), P26231
T1 chain: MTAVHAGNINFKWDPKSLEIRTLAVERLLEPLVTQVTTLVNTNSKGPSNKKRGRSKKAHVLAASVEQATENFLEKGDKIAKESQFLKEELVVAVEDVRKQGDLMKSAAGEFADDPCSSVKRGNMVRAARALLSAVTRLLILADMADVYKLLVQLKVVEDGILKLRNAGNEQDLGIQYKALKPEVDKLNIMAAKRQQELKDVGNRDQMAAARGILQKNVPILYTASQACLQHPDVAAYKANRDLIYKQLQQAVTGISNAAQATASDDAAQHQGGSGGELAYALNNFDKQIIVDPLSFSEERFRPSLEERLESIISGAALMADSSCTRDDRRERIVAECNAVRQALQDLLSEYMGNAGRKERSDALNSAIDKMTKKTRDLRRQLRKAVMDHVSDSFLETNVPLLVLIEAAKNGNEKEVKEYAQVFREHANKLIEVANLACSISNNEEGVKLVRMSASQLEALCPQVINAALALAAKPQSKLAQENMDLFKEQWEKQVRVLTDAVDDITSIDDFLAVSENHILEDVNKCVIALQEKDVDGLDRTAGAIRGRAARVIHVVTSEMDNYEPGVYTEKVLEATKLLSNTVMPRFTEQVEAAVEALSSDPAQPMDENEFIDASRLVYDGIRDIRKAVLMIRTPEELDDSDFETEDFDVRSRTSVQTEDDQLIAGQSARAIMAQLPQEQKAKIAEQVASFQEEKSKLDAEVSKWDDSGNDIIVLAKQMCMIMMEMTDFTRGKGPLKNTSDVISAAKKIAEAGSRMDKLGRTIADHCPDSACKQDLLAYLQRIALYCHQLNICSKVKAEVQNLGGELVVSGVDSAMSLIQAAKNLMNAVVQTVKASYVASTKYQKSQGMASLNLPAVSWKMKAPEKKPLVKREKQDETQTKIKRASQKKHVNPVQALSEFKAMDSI
Test: SEC; Superdex 200 gel filtration at 4°C in 20 mM Tris-HCl pH 8.0, 150 mM NaCl, 2.5 mM DTT, after His-tag affinity chromatography; dimer and monomers
Conditions: remark: other sources report otherwise

stoichiometry N: 2
B1: α-catenin monomer (recombinant full-length mouse α-catenin), P26231 1-906 (natural protein)
chain: T1 chain

From paper PMC8729784
